Data on 36 sequences can be found in the supplement of paper PMC10567573.

± gives the standard deviation.

The nature of the data set: protein stability index of a GFP-peptide fusion (GPS, HEK-293T) (PSI 1-6); higher = more stable. The note with it: c terminus: a fixed tail appended.
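Further: 24-mer peptide tiles fused after GFP, lentivirally expressed, FACS-sorted into six equal bins by GFP/DsRed ratio, decoded by Illumina sequencing, PSI is the read-weighted mean bin number.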

On to VVGNWQYFFPVIFSKASDSLQLVF [MAGEA6], for which the protein stability index reads like this: (treatment: DMSO) 3.21 ± 0.34; (treatment: MLN4924 1 uM, 8 h) 3.32 ± 0.63.
Take VVQDSVNISGHTNTNTLKVPECRL [SPOPL]: the protein stability index by setting is: (treatment: DMSO) 3.34 ± 0.25; (treatment: MLN4924 1 uM, 8 h) 3.56 ± 0.43.
For VYTRHGVPISVTGIAQVKIQGQNK [FLOT1] the same measures were 2.72 ± 0.12 and 2.63 ± 0.39.
As to WEEAQSPANCPACREPSPKMDFKT [TRIM43], the protein stability index was 4.56 ± 0.076 (treatment: DMSO) and 4.83 ± 0.25 (treatment: MLN4924 1 uM, 8 h).
For WGGQEDREPAGRWKEGRPRVEESG [PBXIP1] the same measures were 4.79 ± 0.21 and 5.05 ± 0.099.
For WGKGARGRLGRRDEDAGLPRPVQL [NEK8] the same measures were 3.37 ± 0.23 and 3.48 ± 0.32.
The corresponding values for WGLEEEDFQPREEAMLYHNQTAEL [P3H4] are 4.61 ± 0.084 and 4.5 ± 0.48.
In the case of WGVFYYFVSALGITAGAHRLWSHR [SCD], the protein stability index is, setting by setting: (treatment: DMSO) 3.38 ± 0.79; (treatment: MLN4924 1 uM, 8 h) 2.63 ± 0.62.
For WILLAESNSADDETDDPRRYQKYG [OAS1] the same measures were 3.19 ± 0.17 and 3.32 ± 0.21.
For WIQVTSLRIFVWLLLLYFMQVIAI [PHTF1] the same measures were 3.08 ± 0.43 and 2.93 ± 0.42.
For WLHALHLRQKGNRNTHKDLLRFAQ [FEM1B] the same measures were 2.44 ± 0.52 and 2.35 ± 0.15.
Sequence WVFGTSFLPFLLCAVLLSAVQAQA [FADS1] returned a protein stability index (treatment: DMSO) of 3.09 ± 0.6 and a protein stability index (treatment: MLN4924 1 uM, 8 h) of 2.51 ± 0.12.
The corresponding values for WVRSVSFSHDGLHVASLADDKMVR [WSB1] are 2.66 ± 0.4 and 3.54 ± 0.45.
The corresponding values for WVYKNKLIFFGGYGYLPEDKVLGT [KLHDC2] are 2.55 ± 1.1 and 2.88 ± 1.4.
The corresponding values for YARYHQAFADRDQSERQRHESQQL [TEKT4] are 2.83 ± 0.71 and 3.66 ± 0.64.
Turning to YCNFNKYIPRRLEEAAMQKCLVTE [RSAD1], the protein stability index (treatment: DMSO) stood at 2.32 ± 0.41 and the protein stability index (treatment: MLN4924 1 uM, 8 h) is 2.51 ± 0.38.
For YCYRCGNQAAIMELDDTLKYSFLQ [PPP2CA] the same measures were 2.74 ± 0.58 and 2.58 ± 0.5.
The corresponding values for YDLWASDNPLDRPLVGQDEFFLEQ [NOP53] are 4.31 ± 0.13 and 3.69 ± 0.43.
The corresponding values for YDSFDSEDYPAALPNHKPKGTFKD [ETS1] are 5.05 ± 0.17 and 4.83 ± 0.22.
Take YEFNPDFLEEAHEWNQKRARKAMR [N4BP2L1]: the protein stability index is, setting by setting: (treatment: DMSO) 3.88 ± 0.2; (treatment: MLN4924 1 uM, 8 h) 4.19 ± 0.29.
The corresponding values for YESEILPSTPNPQPPSCQGEAAGS [DUSP5] are 5.24 ± 0.13 and 5.296 ± 0.002.
In turn, YGFSLKTVQGKKGVYMTDITPQGV [PDZK1] came in with a protein stability index (treatment: MLN4924 1 uM, 8 h) of 2.5 ± 0.68.
With YGLKPLTPNSKYVKLNVGGSLHYT [KCTD13], the protein stability index was 2.33 ± 0.23 (treatment: DMSO) and 2.49 ± 0.19 (treatment: MLN4924 1 uM, 8 h).
For YIPRDVDETGITVASLERFSTYTS [ZC3H15] the same measures were 2.65 ± 0.16 and 2.96 ± 0.16.
As to YLASLCMCFGPKKVKPAEAETAGA [SLC29A1], the protein stability index reads like this: (treatment: DMSO) 2.6 ± 0.28; (treatment: MLN4924 1 uM, 8 h) 2.83 ± 0.23.
For YLRPQSNYSSSQDALISVSYTIIT [OR10K2], the protein stability index (treatment: DMSO) stood at 2.73 ± 0.7 and the protein stability index (treatment: MLN4924 1 uM, 8 h) stood at 2.68 ± 0.99.
The corresponding values for YMTKPSKSLLPHLKTGNSSPGIGA [RTP4] are 3.13 ± 0.13 and 3.22 ± 0.27.
As to YPEEADGTLDCISMALTCTFNRWG [RBBP5], the protein stability index amounted to 2.19 ± 0.23 (treatment: DMSO) and 2.11 ± 0.28 (treatment: MLN4924 1 uM, 8 h).
Turning to YPSLQAMGWFNNEVGSMKIQSGAW [CRYBA1], the protein stability index stood at 1.99 ± 0.41 (treatment: DMSO) and 2.45 ± 0.17 (treatment: MLN4924 1 uM, 8 h).
For the sequence YQHLEEDMKSLKQVLEMKNQQIHE [MTUS2], the protein stability index (treatment: DMSO) worked out at 4.07 ± 0.11 and the protein stability index (treatment: MLN4924 1 uM, 8 h) turned out to be 4.27 ± 0.36.
For YQPEPFACGIEHCSVHYVSDSGDG [FBXO34] the same measures were 2.93 ± 0.27 and 3.04 ± 0.26.
For YQRPQDSEDMWGDEDFTFGAYQPT [FBF1] the same measures were 3.2 ± 0.55 and 3.76 ± 0.48.
The corresponding values for YSLTTSSTHKRSSLRKVKLVRPPQ [RAB40B] are 3.42 ± 0.24 and 3.63 ± 0.32.
With YSLVLELSDSGAFRRSLHDPDGLV [APMAP], the protein stability index reads like this: (treatment: DMSO) 2.28 ± 0.48; (treatment: MLN4924 1 uM, 8 h) 2.14 ± 0.38.
The corresponding values for YVKYQVAIHQDPPDECGKTEFTRF [ATE1] are 2.4 ± 0.2 and 2.56 ± 0.5.
The corresponding values for YYHRGHVDPANDTFDIDPMVVTDC [MCOLN1] are 3.63 ± 0.21 and 3.78 ± 0.14.
